Target: T1, VEGFR-1/Ig (human, UniProt P17948)
T1 chain: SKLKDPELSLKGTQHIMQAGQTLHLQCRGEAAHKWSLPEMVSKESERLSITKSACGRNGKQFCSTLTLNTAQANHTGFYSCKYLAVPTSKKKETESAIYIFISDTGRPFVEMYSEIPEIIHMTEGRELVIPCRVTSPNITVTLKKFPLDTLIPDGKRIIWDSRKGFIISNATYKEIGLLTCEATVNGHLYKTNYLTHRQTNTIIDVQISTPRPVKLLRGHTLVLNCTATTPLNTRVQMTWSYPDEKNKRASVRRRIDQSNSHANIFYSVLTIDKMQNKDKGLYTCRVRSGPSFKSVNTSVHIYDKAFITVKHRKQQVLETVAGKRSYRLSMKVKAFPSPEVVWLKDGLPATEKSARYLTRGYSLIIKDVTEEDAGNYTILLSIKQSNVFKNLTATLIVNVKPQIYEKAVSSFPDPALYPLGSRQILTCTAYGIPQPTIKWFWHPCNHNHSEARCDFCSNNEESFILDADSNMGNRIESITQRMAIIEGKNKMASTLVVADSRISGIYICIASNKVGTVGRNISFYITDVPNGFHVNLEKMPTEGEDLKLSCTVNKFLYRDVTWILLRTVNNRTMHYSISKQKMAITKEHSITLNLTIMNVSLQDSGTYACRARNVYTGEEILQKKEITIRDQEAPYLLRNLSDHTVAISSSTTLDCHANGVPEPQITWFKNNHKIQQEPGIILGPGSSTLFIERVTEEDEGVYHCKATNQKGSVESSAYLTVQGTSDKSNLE
Assay: ELISA

B1: VEGF-DΔNΔC (protein)
chain: FYDIETLKVIDEEWQRTQCSPRETCVEVASELGKSTNTFFKPPCVNVFRCGGCCNEESLICMNTSTSYISKQLFEISVPLTSVPELVPVKVANHTGCKCLPTAPRHPYS
Q: Does B1 bind?
A: no binding

— US7097986 (dated 2006)
